# Where a chain is given by its changes, count along the chain named.
# B1: mouse-human chimeric antibody 16A (antibody, human IgG1, lambda, V domains shown)
# VH: EVKLHQSGGGLVQPGGFLKISCVVSGIDFSRYWMSWVRRAPGKGLEWIGEITPDSNTINYVPSLKDNFGISRDNAKNTLFLQMTKVRSEDTALYFCASYYEGFAYWGQGTLVTVSA
# VL: QAVVTQESALTTSPGETVTLTCRSSTGAVITSNYANWVQEKPDHLFTGLIGRTYNRVPGVPARFSGSLIGDKAALTITGAQTEDEAIYFCALWYSNHFVFGGGTKLTVLG
# notes: Murine 16A VH and VL joined to human IgG1 constant region and human lambda 2 light chain; also called chimeric 16A; 16A chimeric antibody
# B2: humanized 16A antibody hVH2hVL2 (antibody, human IgG1, lambda, V domains shown)
# VH: EVQLVESGGGLVQPGGSLRLSCAVSGIDFSRYWMSWVRQAPGKGLEWVGEITPDSNTINYVPSVKGRFTISRDNAKNSLYLQMNSLRAEDTAVYYCASYYEGFAYWGQGTLVTVSS
# VL: QAVVTQEPSLTVSPGGTVTLTCGSSTGAVITSNYANWVQQKPGQAPTGLIGRTYNKVPWTPARFSGSLLGDKAALTLSGAQPEDEAEYFCALWYSNHFVFGGGTKLTVLG
# notes: CDR-grafted humanized antibody; also called Humanized HC 2 (H2988) with Humanized LC2 (L2988)
# B3: humanized 16A antibody hVH1hVL2 (antibody, human IgG1, lambda, V domains shown)
# VH: B2 VH with G49A
# VL: B2 VL
# notes: CDR-grafted humanized antibody; also called Humanized HC 1 (H2987) with Humanized LC2 (L2988)
# B4: humanized 16A antibody hVH3hVL2 (antibody, human IgG1, lambda, V domains shown)
# VH: B2 VH with Q3K, Y95F
# VL: B2 VL
# notes: CDR-grafted humanized antibody; also called Humanized HC 3 (H2989) with Humanized LC2 (L2988)
# B5: humanized 16A antibody hVH4hVL2 (antibody, human IgG1, lambda, V domains shown)
# VH: B2 VH with S17F, A23V, R67N, T69G, Y80F, Y95F
# VL: B2 VL
# notes: CDR-grafted humanized antibody; also called Humanized HC 4 (H2990) with Humanized LC2 (L2988)
# B6: humanized 16A antibody hVH5hVL2 (antibody, human IgG1, lambda, V domains shown)
# VH: B2 VH with A23V, T69G, Y95F
# VL: B2 VL
# notes: CDR-grafted humanized antibody; also called Humanized HC 5 (H2991) with Humanized LC2 (L2988)
# Target: T1, MUC1 on the surface of lung cancer cell line H838 (UniProt P15941 24-1255, limits assumed, tumour-type glycosylation (GalNAc epitope RPAPGS(GalNAc)TAPPAHG), as the filing describes the antigen)
# T1 construct: whole, on cells; No MUC1-negative control of H838 is reported; also called antigen
# T1 sequence (P15941 24-1255 limits assumed): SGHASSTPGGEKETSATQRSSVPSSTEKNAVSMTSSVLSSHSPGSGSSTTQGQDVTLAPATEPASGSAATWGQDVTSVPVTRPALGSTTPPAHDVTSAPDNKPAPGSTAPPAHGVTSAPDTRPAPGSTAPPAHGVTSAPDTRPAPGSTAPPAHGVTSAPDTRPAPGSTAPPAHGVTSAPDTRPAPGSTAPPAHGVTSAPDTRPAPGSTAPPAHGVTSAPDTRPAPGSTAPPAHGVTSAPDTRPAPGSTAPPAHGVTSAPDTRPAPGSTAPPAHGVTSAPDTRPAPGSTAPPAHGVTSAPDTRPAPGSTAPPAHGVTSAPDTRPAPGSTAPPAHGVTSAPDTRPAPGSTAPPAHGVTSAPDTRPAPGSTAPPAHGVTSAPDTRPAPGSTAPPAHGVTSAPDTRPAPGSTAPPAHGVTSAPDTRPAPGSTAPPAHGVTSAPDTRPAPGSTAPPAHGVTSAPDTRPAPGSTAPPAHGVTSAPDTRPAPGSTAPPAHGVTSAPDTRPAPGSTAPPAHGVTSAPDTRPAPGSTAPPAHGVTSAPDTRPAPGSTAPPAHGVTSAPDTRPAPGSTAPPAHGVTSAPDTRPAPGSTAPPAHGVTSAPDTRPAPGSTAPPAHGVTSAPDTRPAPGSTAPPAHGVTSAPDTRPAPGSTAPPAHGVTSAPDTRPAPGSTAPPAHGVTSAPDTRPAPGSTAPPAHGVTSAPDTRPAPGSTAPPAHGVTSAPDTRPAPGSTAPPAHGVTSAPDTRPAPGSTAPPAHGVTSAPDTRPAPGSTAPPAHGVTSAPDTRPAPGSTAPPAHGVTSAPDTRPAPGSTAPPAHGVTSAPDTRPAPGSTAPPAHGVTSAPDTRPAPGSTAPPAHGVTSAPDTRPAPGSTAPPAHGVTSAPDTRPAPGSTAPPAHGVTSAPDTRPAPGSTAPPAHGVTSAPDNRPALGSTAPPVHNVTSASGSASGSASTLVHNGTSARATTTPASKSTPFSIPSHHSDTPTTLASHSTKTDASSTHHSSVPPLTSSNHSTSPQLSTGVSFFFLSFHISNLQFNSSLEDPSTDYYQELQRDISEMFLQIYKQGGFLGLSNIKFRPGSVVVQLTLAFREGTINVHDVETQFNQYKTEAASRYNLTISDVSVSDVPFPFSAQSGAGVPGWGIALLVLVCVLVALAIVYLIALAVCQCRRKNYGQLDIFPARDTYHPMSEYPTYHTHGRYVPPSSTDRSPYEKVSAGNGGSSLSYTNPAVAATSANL
# Experiment: flow cytometry, surface staining of H838 cells, PE anti-human IgG
# Procedure: Lung cancer cell line H838 was obtained from the University of Texas M.D. Anderson Cancer Center. Cells were cultured in 10% RPMI 1640 medium. Different concentrations of chimeric antibody or humanized antibodies were used as primary antibody for staining, washed three times with PBS, then incubated with PE-conjugated mouse-anti-human IgG (BioLegend). The stained cells were analyzed by FACS Caliber flow cytometer (BD Biosciences, San Jose, Calif.).
row,Binder,Minimum concentration of binding to lung cancer cell line H838 [µg/mL]
1,B1,0.0125
2,B2,0.025
3,B3,0.025
4,B4,0.025
5,B5,0.05
6,B6,0.025

# Source: patent US20200115466A1 (NANOCRUISE PHARMACEUTICAL, published 2020)
